Laboratory results published in the nanobody polyreactivity screen of Harvey et al. (2022).

Experiment: yeast display, Sf9 membrane polyspecificity reagent, FACS + sequencing; frameworks hold sequencing errors
Method in brief: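 Genes from sorted yeast were amplified by colony PCR, read by MiSeq 2 × 250 sequencing and filtered on CDR length. These cells carried a synthetic nanobody library in Saccharomyces cerevisiae BJ5465 and were sorted by FACS into low and high (top ~1%) gates on anti-HA and streptavidin fluorescence. Polyreactivity is labelled according to the gate of origin.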

QVQLVESGGGLVQAGGSLRLSCAASGSIFPHNAMGWYRTAPGKDRELVAAISWRDVISYYADSVKGRFTISRDNAKNTVYLQMNSLKPEDTAVYYCAAELRVYGVDYEYWGQGTQVTVSS
polyreactivity (PSR sort gate): high polyreactivity

QVQLVESGGGLVQAGGSLRLSCAASGITFVYNDMGSYRQAPGKESELVAAISWRGGSTYYADSVKGRFTISRDNAKNTVYLQMNSLKPEDTAVYYCNKLPTYPEYGYDSWGQGTQVTVSS
polyreactivity (PSR sort gate): high polyreactivity

QVQLVESAVGLVQAGGSLPLSCDASSSTIYPYAMGWYRQAPGKERELVAAISSGGSTSYADSVKGRFTISRDNAKNTVYLQMNSLKPEDTAVYYCNADPLQCKLWTYFFGFPGYYWGQGTQVTVSS
polyreactivity (PSR sort gate): low polyreactivity

QVQLVESGGGLVQAGGSLRLSCAASGRTFPYYVMGWYRQAPGKERELVATISSSGRTYYADSVKGRFTISRDNAKNTVYLQMNSLKPEDTAVYYCAARFRWNQNYHFYSWGQGTQVTVSS
polyreactivity (PSR sort gate): high polyreactivity

QVQLVESGGGLVQAGGSLRLSCAASGSNFFLYAMGWYRQAPGKEREFVAAITGTADSTYYADSVKGRFTISRDDAKNTVYLQMNSLKPEDTAVYYCATDYWSSVKLDDYWGQGTQVTVSS
polyreactivity (PSR sort gate): low polyreactivity

QVQLVESGGGLVQAGGSLRLSCAASGFIFTGYAMGWYRQAPGKERELVAAISWTGDSTYYADSVKGRFTISRDNAKNTVYLQMNSLKPEDTAVYYCAARSYRKPSSRRFDYWGQGTQVTVSS
polyreactivity (PSR sort gate): low polyreactivity

QVQLVESGGGLVQAGGSLRLSCAASGSTFIPNTMGWYRQAPGKERELVAAISRRGGSTNYADSVKGRFTISRDNAKNTVYLQMNSLKPEDTAVYYCAAVSPRRYRYDYWGQGTQVTVSS
polyreactivity (PSR sort gate): high polyreactivity

QVQLVESGGGLVQAGGSLRLSCAASGSTFALYAMGWSRPAPGKERELVAAITWSGTGTYYADSVKGRFTISRDNAKNTVYLQMNSLKPEDTAVYYCNAEYWWWGLGNDYWGQGTQVTVSS
polyreactivity (PSR sort gate): low polyreactivity

QVQLVESGGLLVQAGGSLRLSCAASGSTFYYNDMGWYRQAPGKEREFVAAISSRGGSTYDADSVKGRFTISRDNAKNTVYLQMNSLKPEDTAVYYCAAKDRHRYDWGQGTQVTVSS
polyreactivity (PSR sort gate): high polyreactivity

QVQLVESGGGLVQAGGSLRLSCAASRFIFWSYAMGWYIQAPGTEREMVAAIDMTGGSTYYADYVKGRFTISRDNAKNTVYLQMNSLKPEDTAVYYCNADGDTYAFTNSDSGFDYWGQGTQVTVSS
polyreactivity (PSR sort gate): low polyreactivity

QVQLVESGGGLVQAGGSLRLSCAASGRIFVAYAMGWYRQAPGKQRELVADIDYIDGSTYYADSVKGRFTISRDNAKNTVYLQMNSLKPEDTAVYYCAVDSLYYAGYYDYWGQGTQVTVSS
polyreactivity (PSR sort gate): high polyreactivity

QVQLVESGGGLVQAGGSLRLSCAASGSIFSYYAMGWSRQAPGKERELVAAISWGDDSTYYADSVKGRFTISRDNAKNTVYLQMNSLKPEDTAVYYCAADRVGWYRTFDYWGQGTQVTVSS
polyreactivity (PSR sort gate): low polyreactivity

QVQLVESGGGLVQAGGSLRLSCAASGLIFADYVMGWYRQAPGKERELVATINQGGGSTYYADSVKGRFTISRDNAKNTVYLQMNSLIPEDTAVYYCAATWALLYAIFESYDYWGQGTQVTVSS
polyreactivity (PSR sort gate): low polyreactivity

QVQLVESGGGLVQAGGSLRLSCADSGRTFWGYSMGCYRQAPGKERELVAAITWNGGRTYYADSVKGRFTISRDNAKNTVYLQMNSLKPEDTAVYYCAAGYPRFGYDYWGQGTQVTVSS
polyreactivity (PSR sort gate): high polyreactivity

QVQLVESGGGLVQAGGSLRLSCAASGSIIKYYAMGWYRQAPGKEREFVAAITASSSRTYYADSVKGRFTISRDNAKNKVYLQMNSLKPEDTAVYYCAAVGPGRRRDYWGQGTQVTVSS
polyreactivity (PSR sort gate): high polyreactivity

QVQLVESGGGLVQAGGSLRLSCAASGFTFGYNAMGWYRQAPGKEREFVAAISISTGRTFYADSVKGRFTISRDNAKNTVYLQMNSLKPEDTAFYYCAARGYYPTNVGKYNYWGQGTQVTVSS
polyreactivity (PSR sort gate): high polyreactivity

QVQLVESGGGLVQAGGSLRLSCAASGSIFKWNAMGWYRQAPGKERELVASITRSGGSTYYADSVKGRFTISRDNAKNTVYLQMNSLKPEDTAVYYCARSYGWYRWAGYDYWGQGTQVTVSS
polyreactivity (PSR sort gate): high polyreactivity

QVQLVESGGGLVQAGGSLRLSCAASGRTSRYYAMGWYRQAPGKERELVAGISWSGGNTYYADSVKGRFTISRDNAKNTVYLQMNSLKPEDTAVYYCNARIGWSPSRYGYWGQGTQVTVSS
polyreactivity (PSR sort gate): high polyreactivity

QVQLVESGGGLVQAGGSLRLSCAASGRIFYYNAMGWYRQAPGKERELVAAISYRGASTYYADSVKGRFTISRDNAKNTVYLQMNSLKPEDTAVYYCAAVTISKGFYPYDYWGQGTQVTVSS
polyreactivity (PSR sort gate): high polyreactivity

QVQLAESGGGLVQAGGSLRLSCGASGSTFVAYALGWYRQAPGKEREFVAAISRSGGSTHYADSVKGRFTISRDNAKNTVYLQMNRLNPEDTAVYYCAARVYGYGGRTYEYWGQGTQVTVSS
polyreactivity (PSR sort gate): high polyreactivity

QVQLVESGGGIVQAGGSLRLSCAASGSTFFDNAIGWYRQAPGKERELVAAITRGGSKHYADSVMGRFTISRDNAKNTVYLQMNSVKPEDTAVYSCNAQRYRVPYDYWGQGTQVTVSS
polyreactivity (PSR sort gate): low polyreactivity

QVQLVESGGGLVQAGGSLRLSCAASGSIFGRYVKGWYRQAPGKERELVATISSGGSTYYADSVKGRFTISRDNAKNTVYFQMISLKPEDTAVYYCAASYSRFVDWIGDPGYDYWGQGTQVTVSS
polyreactivity (PSR sort gate): low polyreactivity

QVQLVESGGGLVQAGGSLRLSCAASGRTFYPYAMGWYRQAPGKEREFVAAITWTGDSTYYADSVKGRFTISRDNAKNTVYLQMNSLKPEDTAVYYCAADLSSSPYYYGYDYWGQGTQVTVSS
polyreactivity (PSR sort gate): low polyreactivity

QVQLVESGGGLVQAGGSLRLSCAASGRTFRYYAMGWYRPAPGKERELVATITGSGGSTYYADSVKGRFTISRDNAKNTVYLQMNSLKPEDTAVYDCNARKVRYPYRWYVYWGQGTQVTVSS
polyreactivity (PSR sort gate): high polyreactivity

QVQLVESGGGLVQAGGSLRLSCAASGFIFVANAMGWYRQAPGKEREFFAAISSSGGRTYYADSVKGRFTISRDNAKNTVYLQMNSLKPEDTAVYYCAKDRVFSRRGFGYWGQGTQVTVSS
polyreactivity (PSR sort gate): low polyreactivity

QVQLVESGGGLVQAGGSLRLSCAASGSIFQFSAMGWYRQAPGKERPLVAAISDRGGSTYYADSVKGRFTISRDNAKNTVYLLMNSLKPEDTAVYYCAKGGEVSQGYTDEYDYWGQGTQVTVSS
polyreactivity (PSR sort gate): low polyreactivity

QVQLVESGGGLVQAGGSLRLSCAASGSIFIANAMGWYRQAPGKERELVASISSGGSTNYADSVKGRFTISRDNAKNTVYLQMNSLKPEDTAVYYCAADGTDDYGGDFYLWVDYWGQGTQVTVSS
polyreactivity (PSR sort gate): low polyreactivity

QVQLVESGGGLVQAGGSLRLSCAASRIIFTHNAMGWYRQAPGKERELVAAISWSGGSTYYADSVNGRFTISRDNAKNTVYIEMNSLKPEDTAVYYCAAPYFTYGQDDDDYWGQGTQVTVSS
polyreactivity (PSR sort gate): low polyreactivity

QVQLVESGGGLVQAGGSLRLSCAASGYILRRNAMGWYRQAPGKERELVARINSSGGSTYYADSVKGRFTISRDNAKNTVYLQMNSLKPEDTAVYYCAKSYYRGRDYWGQGTQVTVSS
polyreactivity (PSR sort gate): high polyreactivity

QVQLVESGGGLVQAGGSLRLSCAASGSIFTPNAMGGYRQAPGKERELVAAISSSSDRTYYADSVKGRFTISRDNAKNTVYLQMNRLKPEDTAVYYCAAYAQKRYYWGQGTQVTVSS
polyreactivity (PSR sort gate): high polyreactivity

QVQLVDSGGGLVQAGGSLRLSCAASGGTFKYYAMGWYRQAPGKERELVAAITWSGGSTYYADSVKGRFTISRDNAKNTVYLQMNSLKPEDTAVYYCNAAYSQIRFNYWGQGTQVTVSS
polyreactivity (PSR sort gate): high polyreactivity

QVQLVESGGGLVQAGGSLRLNSAASGSIFYRYAMRWYRQAPGKERELVAAISSNGGRTYYADSVKGRFTISRDNSKNTVYLQMNSLKPEDTAVYYCATLPGYSMDYWGQGTQVTVSS
polyreactivity (PSR sort gate): high polyreactivity
